Data reported in patent US20160244509A1.
Read-outs that look alike come from different tables or passages of the source.

How the values were obtained:
Experiment in all cases: cell-based or functional assay
[1] = target: RSV F protein of RS virus subtype A strains (A2, X and 2006-1)
[2] = target: RSV F protein of RS virus subtype B strains (2007-2 and Z)
[3] = target: RSV F protein of RS virus subtype B strains (2007-2 and Z); remark: listed apart in the source
[4] = target: RSV F protein of RS virus subtype A strains (A2, X and 2006-1); remark: listed apart in the source

Binder	IC50 values (ng/ml), RS virus neutralization, HEp2 cells, subtype A [1] [ng/mL]	IC50 values (ng/ml), RS virus neutralization, Vero cells, subtype A [1] [ng/mL]	IC50 values (ng/ml), RS virus neutralization, HEp2 cells, subtype B [2] [ng/mL]	IC50 values (ng/ml), RS virus neutralization, Vero cells, subtype B [2] [ng/mL]	IC50 values (ng/ml), RS virus neutralization, HEp2 cells, subtype B [3] [ng/mL]	IC50 values (ng/ml), RS virus neutralization, Vero cells, subtype B [3] [ng/mL]	IC50 values (ng/ml), RS virus neutralization, HEp2 cells, subtype A [4] [ng/mL]	IC50 values (ng/ml), RS virus neutralization, Vero cells, subtype A [4] [ng/mL]
AM16 (antibody, V domains shown) VH: EVQLVETGGGLAQPGGSLRLSCAASGFTFSSYNMNWVRQAPGKGLEWVSHISAGSSYIYYSDSVKGRFTVSRDNVRNSVYLQMNSLRAADTAVYYCAREDYGPGNYYSPNWFDPWGQGTLVTVSS VL: QSVVTQPPSVSGAPGQRVTISCTGSSSNIGAGYDVHWYQQLPGTAPKLLIYGNTNRPSGVSDRFSGSKSGTSASLAITGLQAEDEADYYCHSYDRSLSGSVFGGGTKLTV	286	304	125	126	–	–	–	–
D25 (B63D10-D25), monoclonal antibody from the B cell line (culture supernatant or purified from it) (antibody, V domains shown) VH: QVQLVQSGAEVKKPGSSVMVSCQASGGPLRNYIINWLRQAPGQGPEWMGGIIPVLGTVHYAPKFQGRVTITADESTDTAYIHLISLRSEDTAMYYCATETALVVSTTYLPHYFDNWGQGTLVTVSS VL: DIQMTQSPSSLSAAVGDRVTITCQASQDIVNYLNWYQQKPGKAPKLLIYVASNLETGVPSRFSGSGSGTDFSLTISSLQPEDVATYYCQQYDNLPLTFGGGTKVEIKRTV	3.3	3.4	14.3	9	–	–	–	–
recombinant GENEART codon optimized D25 (rD25 GA) (antibody, V domains shown) VH: QVQLVQSGAEVKKPGSSVMVSCQASGGPLRNYIINWLRQAPGQGPEWMGGIIPVLGTVHYAPKFQGRVTITADESTDTAYIHLISLRSEDTAMYYCATETALVVSTTYLPHYFDNWGQGTLVTVSS VL: DIQMTQSPSSLSAAVGDRVTITCQASQDIVNYLNWYQQKPGKAPKLLIYVASNLETGVPSRFSGSGSGTDFSLTISSLQPEDVATYYCQQYDNLPLTFGGGTKVEIKR	–	–	–	–	1.3	1.2	5.3	3.2
recombinant purified D25 (rD25), expressed in 293T cells (antibody, V domains shown) VH: QVQLVQSGAEVKKPGSSVMVSCQASGGPLRNYIINWLRQAPGQGPEWMGGIIPVLGTVHYAPKFQGRVTITADESTDTAYIHLISLRSEDTAMYYCATETALVVSTTYLPHYFDNWGQGTLVTVSS VL: DIQMTQSPSSLSAAVGDRVTITCQASQDIVNYLNWYQQKPGKAPKLLIYVASNLETGVPSRFSGSGSGTDFSLTISSLQPEDVATYYCQQYDNLPLTFGGGTKVEIKRTV	2.1	1.6	1.9	0.3	–	–	–	–
AM14 (antibody, V domains shown) VH: EVQLVESGGGVVQPGRSLRLSCAASGFSFSHYAMHWVRQAPGKGLEWVAVISYDGENTYYADSVKGRFSISRDNSKNTVSLQMNSLRPEDTALYYCARDRIVDDYYYYGMDVWGQGATVTVSS VL: DIQMTQSPSSLSASVGDRVTITCQASQDIKKYLNWYHQKPGKVPELLMHDASNLETGVPSRFSGRGSGTDFTLTISSLQPEDIGTYYCQQYDNLPPLTFGGGTKVEIKRTV	21.5	15.2	6.7	1.1	–	–	–	–
AM23 (antibody, V domains shown) VH: EVQLVESGGNVVKPGTSLRLSCAATGFNFHNYGMNWVRQAPGKGLEWVAVVWYDGSKKYYADSVTGRFAISRDNSKNTLYLQMNSLRVEDTAVYYCVRDKVGPTPYFDSWGQGTLVTVSS VL: SYVLTQPPSVSLAPGGTAAITCGRNNIGSETVHWYQQKPGQAPVLVVYDDDDRPSGIPERFSGSNSGNTATLTISRVEAGDEADYYCQVWDRSNYHQVFGGGTKLTV	25	19.4	191	169	–	–	–	–
